± gives the standard deviation of the averaged measurements.
Each sequence was assayed on Saccharomyces cerevisiae (assay: protein stability index of tFT-peptide fusion (C-terminal peptide) (PSI (0-1 scale)); higher = more stable (slower turnover)). Settings: genetic background: wild type; temperature: 30 C.
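Note: PSI is a weighted mean of sequencing reads over stability bins, variants kept only with over 10 reads, mCherry proximal and sfGFP distal, peptide attached via GGGS linker.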

Sequence | protein stability index
PDCLSLCFSLFP | 0.664 ± 0.0071
PDCVLSDENDAG | 0.658 ± 0.0076
PDLGRQPGGSET | 0.647 ± 0.052
PDYNEIIEYTEG | 0.706 ± 0.033
PEEGQNASVRPC | 0.694 ± 0.023
PERPPVARATRP | 0.718 ± 0.049
PFFLVSPEPLSI | 0.666 ± 0.058
PFFPSSFALLRS | 0.7166 ± 0.0067
PFFPVALPFPHL | 0.7 ± 0.021
PFFSSRLFTLSL | 0.731 ± 0.015
PFLCCPRMSHFL | 0.705 ± 0.013
PFLPSPPPPVPI | 0.712 ± 0.045
PFPAFPPVTSPP | 0.85 ± 0.054
PFPLPPPPFHPP | 0.691 ± 0.014
PFPPPTDQTAHR | 0.728 ± 0.025
PFPPTPSPAPPL | 0.7097 ± 0.0025
PFRSFSPPPRAP | 0.742 ± 0.17
PFRSPFSSSPTF | 0.7772 ± 0.0077
PFSLTTLFSPLL | 0.691 ± 0.031
PFSPLVPPLSFS | 0.76 ± 0.086
PFSSFLSLFPIL | 0.7 ± 0.0084
PFVSHLDRWDIR | 0.712 ± 0.041
PFYTKSASPSSR | 0.669 ± 0.02
PGAHPVTLTIRL | 0.647 ± 0.027
PGHRVLKILHLR | 0.551 ± 0.055
PGITRKTKKEKK | 0.701 ± 0.041

Sequence | protein stability index
PGLGISHARCCF | 0.695 ± 0.016
PGLPFAPLPPPL | 0.733 ± 0.014
PGPPPPPPPLYP | 0.6947 ± 0.0063
PGPPSPPPPLYP | 0.6783 ± 0.0056
PGQRSRGPPGRA | 0.737 ± 0.076
PGQSSPLPPDVS | 0.653 ± 0.078
PGRSATSCPFLG | 0.671 ± 0.019
PGSCGATTRCLH | 0.481 ± 0.075
PGWPISNLGHAL | 0.634 ± 0.077
PHFLLLEDRPQT | 0.705 ± 0.02
PHGPPAHLRSRP | 0.737 ± 0.015
PHHPPAHPPTPP | 0.683 ± 0.023
PHHPPPPLPCVV | 0.632 ± 0.071
PHHRRVVRPPTA | 0.704 ± 0.013
PHNTPRPELLPP | 0.613 ± 0.11
PHPAPPPNPLVP | 0.739 ± 0.017
PHPCSPAPPWPL | 0.694 ± 0.028
PHPHRPPRSFLL | 0.704 ± 0.1
PHPLPSHPLPPP | 0.738 ± 0.023
PHPLSPRPPPSL | 0.746 ± 0.013
PHPPFLFPPPCP | 0.71 ± 0.051
PHPPLPPLLPPA | 0.741 ± 0.082
PHPPLPPPPYLL | 0.667 ± 0.016
PHPPPSLLPSAP | 0.7612 ± 0.0037
PHPTPSLPHSSP | 0.827 ± 0.043
PHQCLSFPPRFK | 0.744 ± 0.082

Sequence | protein stability index
PHSASSVSYTLY | 0.701 ± 0.052
PHSPSHTPVYPR | 0.694 ± 0.011
PHSPSPSWFWPR | 0.76 ± 0.058
PHSSFSLAPPIP | 0.696 ± 0.01
PHTLPPLPVSPT | 0.67 ± 0.05
PHVLAALTSYTP | 0.68783 ± 0.00064
PHVSGYTVLIWF | 0.5588 ± 0.0054
PICAWGRPRTPM | 0.7639 ± 0.0017
PIDHCFPPIPRR | 0.737 ± 0.035
PILPTSAPSDPR | 0.724 ± 0.12
PIPHHLRVASPA | 0.6162 ± 0.00068
PISPPLPRPSPR | 0.696 ± 0.012
PIVSISLGIGSS | 0.6758 ± 0.001
PKAMRPKLVVFR | 0.682 ± 0.024
PKHQPSLLPNHH | 0.615 ± 0.026
PKKREKKKKKEK | 0.66 ± 0.073
PKSTDVPPVRRE | 0.686 ± 0.088
PKVRQLLLTRVL | 0.547 ± 0.022
PKYYTTTDRLRV | 0.622 ± 0.02
PLAALPLALSLP | 0.6575 ± 0.0055
PLALPLHLPLPP | 0.667 ± 0.034
PLALSPNPLSRT | 0.679 ± 0.045
PLAPPHRPALLM | 0.568 ± 0.034
PLCLLLLNPPTL | 0.682 ± 0.012
PLCVPPRRLFPP | 0.716 ± 0.072
PLFFLPLPPPLF | 0.6881 ± 0.0046

Sequence | protein stability index
PLFLLLPALSIP | 0.595 ± 0.029
PLFRTPPPRPSP | 0.673 ± 0.14
PLFSFLPPPLPP | 0.697 ± 0.017
PLGPLLSPLSPP | 0.743 ± 0.014
PLGPRFLPLVLP | 0.682 ± 0.021
PLGVPPPAPSSP | 0.6943 ± 0.0024
PLHPPPPPPPPT | 0.69 ± 0.034
PLLHPPPRASLL | 0.792 ± 0.13
PLLLPLFSSSPP | 0.777 ± 0.085
PLLLYFLPPLPL | 0.629 ± 0.039
PLLPYPFPPPLS | 0.784 ± 0.04
PLLTFSPLPGLS | 0.696 ± 0.034
PLLTPPPVLHHP | 0.741 ± 0.035
PLLVLSLRLSPP | 0.664 ± 0.013
PLPALRPGAAPH | 0.7457 ± 0.0023
PLPAPPSTPSSP | 0.715 ± 0.034
PLPAPPTPPLPP | 0.763 ± 0.039
PLPARFPPSPPS | 0.743 ± 0.074
PLPFLPPPPCPP | 0.696 ± 0.036
PLPFPFPLCSQS | 0.64 ± 0.1
PLPFPPPPPSPY | 0.655 ± 0.086
PLPLPSTALPPS | 0.632 ± 0.063
PLPPISSFPSLS | 0.703 ± 0.028
PLPPLFLPPPPL | 0.708 ± 0.021
PLPPLLLPPPLP | 0.703 ± 0.046
PLPPPLPQAPPT | 0.695 ± 0.021

Sequence | protein stability index
PLPPPPAPPLPP | 0.647 ± 0.024
PLPPPPLLPFVL | 0.774 ± 0.085
PLPPPPTPPVPV | 0.672 ± 0.015
PLPPRPSPPPPL | 0.705 ± 0.013
PLPPSSSPSSLP | 0.71 ± 0.077
PLPPTAPPHPPP | 0.671 ± 0.096
PLPQVLYPPPPS | 0.6905 ± 0.0045
PLPRLRRPAPPH | 0.667 ± 0.055
PLPRPPPPSCPP | 0.654 ± 0.076
PLPRPPPTATGD | 0.687 ± 0.013
PLPRSPRPSAPP | 0.622 ± 0.034
PLPSAPLLPPPP | 0.686 ± 0.056
PLPVLLLPGHLP | 0.733 ± 0.054
PLPYSPPHPVPP | 0.701 ± 0.029
PLRDHPAPPHRL | 0.665 ± 0.068
PLRESSTRPSLL | 0.684 ± 0.055
PLRLPPAPPFPL | 0.824 ± 0.075
PLRLPPAPPPPP | 0.617 ± 0.015
PLRPAPVLYPAF | 0.654 ± 0.012
PLRPPRPPPPPF | 0.726 ± 0.052
PLRRRPFAPPPP | 0.535 ± 0.034
PLSFHPHLTSSP | 0.671 ± 0.013
PLSLSPLPSPPL | 0.704 ± 0.041
PLSPPAPSPAPR | 0.644 ± 0.0071
PLSPPLPPPLSL | 0.681 ± 0.031
PLSPPPPPRPPL | 0.728 ± 0.019

Sequence | protein stability index
PLSPPPSLPVPL | 0.659 ± 0.051
PLSPRLPRRRLP | 0.681 ± 0.017
PLSSLSLPTPPT | 0.707 ± 0.062
PLSTHNSLPRVK | 0.691 ± 0.061
PLSVSLSLLTPR | 0.74 ± 0.13
PLTNKTHRPPDK | 0.702 ± 0.0091
PLVPSPSPPPAR | 0.727 ± 0.031
PLWRVPPYPPSP | 0.691 ± 0.031
PLWVFFRFSPNL | 0.662 ± 0.01
PMNCIGTRGHQV | 0.65854 ± 0.00043
PMPPPPPACSLD | 0.777 ± 0.11
PNAPSLSPPSLF | 0.624 ± 0.066
PNASPNPHRSNK | 0.708 ± 0.062
PNESFLLPELNH | 0.711 ± 0.0083
PNETQTQRPATR | 0.683 ± 0.025
PNPPHPPPLPPA | 0.595 ± 0.033
PNPRSPRPSPPS | 0.687 ± 0.038
PPAFPPPPSPPP | 0.636 ± 0.091
PPAHPRPPPPFL | 0.762 ± 0.037
PPAPLHLPSLPR | 0.705 ± 0.018
PPAPPHLPPLPR | 0.71574 ± 0.00046
PPAPPLPAPPWA | 0.54 ± 0.032
PPAPPPLPPPPP | 0.729 ± 0.0092
PPAPPPPTGLCL | 0.755 ± 0.092
PPAPRPPLFPYP | 0.697 ± 0.043
PPAPRPPSPRPP | 0.693 ± 0.033

Sequence | protein stability index
PPARIFRSLPTP | 0.711 ± 0.047
PPASLRRLLPPP | 0.654 ± 0.0066
PPASPPLPPPRP | 0.689 ± 0.042
PPATTSATRVRP | 0.698 ± 0.043
PPAVRRPRRGGN | 0.699 ± 0.016
PPCGPPGPPIPP | 0.592 ± 0.026
PPCLPPASRPVL | 0.699 ± 0.0069
PPDPPPYAPPPP | 0.648 ± 0.015
PPDPPWPRSPPA | 0.588 ± 0.019
PPFLPLPPPPLP | 0.731 ± 0.015
PPFLSAFPPHLP | 0.724 ± 0.015
PPFPPPPRPPSS | 0.645 ± 0.036
PPFTRLPPPLSS | 0.741 ± 0.062
PPGPPRPFPSHL | 0.785 ± 0.16
PPHFPLPLPPTP | 0.706 ± 0.024
PPHPARHRPPAS | 0.7321 ± 0.0016
PPHPPRPPSPHP | 0.707 ± 0.051
PPHPSPPPPSHS | 0.693 ± 0.039
PPICLCHDPAAH | 0.659 ± 0.013
PPLAPPPPPRPP | 0.6 ± 0.072
PPLASSPPVLAR | 0.514 ± 0.018
PPLCPPLPFLHP | 0.885 ± 0.11
PPLDLPFPSRSI | 0.745 ± 0.0078
PPLFPPPTLPEL | 0.738 ± 0.02
PPLGPRPPSNST | 0.6522 ± 0.0058
PPLKPRTSRPTI | 0.682 ± 0.009

Sequence | protein stability index
PPLLPLPPPPSP | 0.625 ± 0.067
PPLLPLSQPLPH | 0.683 ± 0.038
PPLLPPAPLFPP | 0.694 ± 0.025
PPLPAPPAPAVQ | 0.6991 ± 0.0027
PPLPFAISPPPA | 0.6624 ± 0.0017
PPLPHPPLLAPP | 0.748 ± 0.15
PPLPLPPPIRPP | 0.6388 ± 0.0037
PPLPNLVYHLST | 0.6195 ± 0.0054
PPLPPHPPPGQQ | 0.697 ± 0.017
PPLPPLPLSLSI | 0.742 ± 0.093
PPLPPLPPLPPP | 0.72 ± 0.08
PPLPPPPPRLPA | 0.636 ± 0.025
PPLPPQLVQDLL | 0.72 ± 0.073
PPLPPRPAPIPP | 0.663 ± 0.033
PPLPPRPQTHLH | 0.728 ± 0.074
PPLPPSPPAPPP | 0.629 ± 0.0019
PPLPPSSPPPSS | 0.6605 ± 0.0028
PPLPPTLSSIVI | 0.599 ± 0.021
PPLPRPHHPYRR | 0.708 ± 0.025
PPLRPPRPHQHS | 0.636 ± 0.039
